Experiments:
[1] = biological target: T1, Zur (ScZur) wild type (Streptomyces coelicolor) (UniProt Q9L2H5); assay: DNase I footprinting; details: ITC: 20 mM HEPES pH 7.8, 150 mM NaCl, 0.5 mM TCEP, 25 C. EMSA: 20 mM Tris-HCl pH 7.8, 150 mM NaCl, 5 mM DTT, 0.1 mg/ml BSA, 5% glycerol, 0.1 ug poly(dI-dC) per …
T1 sequence: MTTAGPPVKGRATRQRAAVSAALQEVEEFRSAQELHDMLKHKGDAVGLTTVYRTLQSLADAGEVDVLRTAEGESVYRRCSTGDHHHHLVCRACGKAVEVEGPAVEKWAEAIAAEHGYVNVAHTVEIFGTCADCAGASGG

[2] = biological target: T2, Zur H36A H36A (Streptomyces coelicolor) (UniProt Q9L2H5); assay: DNase I footprinting; details: ITC: 20 mM HEPES pH 7.8, 150 mM NaCl, 0.5 mM TCEP, 25 C. EMSA: 20 mM Tris-HCl pH 7.8, 150 mM NaCl, 5 mM DTT, 0.1 mg/ml BSA, 5% glycerol, 0.1 ug poly(dI-dC) per …
T2 sequence: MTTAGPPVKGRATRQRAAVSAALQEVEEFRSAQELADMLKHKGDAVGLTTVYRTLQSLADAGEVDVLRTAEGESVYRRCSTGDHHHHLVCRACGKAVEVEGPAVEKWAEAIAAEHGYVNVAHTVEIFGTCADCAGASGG

Zur (ScZur) wild type [3] = biological target: T3, Zur (ScZur) wild type (Streptomyces coelicolor, UniProt Q9L2H5 1-139); assay: ITC; 4.0 eq Zn2+ per Zur dimer; N=3.1 dimers per DNA; K=1.8e6 M-1; ITC: 20 mM HEPES pH 7.8, 150 mM NaCl, 0.5 mM TCEP, 25 C. EMSA: 20 mM Tris-HCl pH 7.8, 150 mM NaCl, 5 mM DTT, 0.1 mg/ml BSA, 5% glycerol, 0.1 ug poly(dI-dC) per; details: protein: recombinant; chain copies: 2; label: 6-FAM in EMSA; blunt
T3 sequence: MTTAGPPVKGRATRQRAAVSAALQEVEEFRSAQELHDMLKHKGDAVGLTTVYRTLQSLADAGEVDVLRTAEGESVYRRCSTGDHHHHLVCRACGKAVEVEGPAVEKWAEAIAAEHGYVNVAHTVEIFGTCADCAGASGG

Zur H36A [4] = biological target: T4, Zur H36A (Streptomyces coelicolor, UniProt Q9L2H5 1-139, H36A); assay: ITC; 4.0 eq Zn2+ per Zur dimer; N=3.1 dimers per DNA; K=2.6e5 M-1; ITC: 20 mM HEPES pH 7.8, 150 mM NaCl, 0.5 mM TCEP, 25 C. EMSA: 20 mM Tris-HCl pH 7.8, 150 mM NaCl, 5 mM DTT, 0.1 mg/ml BSA, 5% glycerol, 0.1 ug poly(dI-dC) per; details: protein: recombinant; chain copies: 2; label: 6-FAM in EMSA; blunt
T4 sequence: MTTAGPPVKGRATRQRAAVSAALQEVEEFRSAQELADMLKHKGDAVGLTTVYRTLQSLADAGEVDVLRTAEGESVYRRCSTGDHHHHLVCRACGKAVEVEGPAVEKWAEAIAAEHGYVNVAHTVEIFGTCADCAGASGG

Zur (ScZur) wild type [5] = biological target: T3, Zur (ScZur) wild type; assay: EMSA; 400 nM Zur, 0-5 uM zinc; saturating state switched (tetramer); ITC: 20 mM HEPES pH 7.8, 150 mM NaCl, 0.5 mM TCEP, 25 C. EMSA: 20 mM Tris-HCl pH 7.8, 150 mM NaCl, 5 mM DTT, 0.1 mg/ml BSA, 5% glycerol, 0.1 ug poly(dI-dC) per; details: protein: recombinant; chain copies: 2; label: 6-FAM; blunt
Zur H36A [6] = biological target: T4, Zur H36A; assay: ITC; 4.0 eq Zn2+ per Zur dimer; N=2.0 dimers per DNA; K=3.3e5 M-1; ITC: 20 mM HEPES pH 7.8, 150 mM NaCl, 0.5 mM TCEP, 25 C. EMSA: 20 mM Tris-HCl pH 7.8, 150 mM NaCl, 5 mM DTT, 0.1 mg/ml BSA, 5% glycerol, 0.1 ug poly(dI-dC) per; details: protein: recombinant; chain copies: 2; label: 6-FAM in EMSA; blunt
Zur (ScZur) wild type [7] = biological target: T3, Zur (ScZur) wild type; assay: ITC; 4.0 eq Zn2+ per Zur dimer; N=2.1 dimers per DNA; K=8.7e5 M-1; ITC: 20 mM HEPES pH 7.8, 150 mM NaCl, 0.5 mM TCEP, 25 C. EMSA: 20 mM Tris-HCl pH 7.8, 150 mM NaCl, 5 mM DTT, 0.1 mg/ml BSA, 5% glycerol, 0.1 ug poly(dI-dC) per; details: protein: recombinant; chain copies: 2; label: 6-FAM in EMSA; blunt
Zur (ScZur) wild type [8] = biological target: T3, Zur (ScZur) wild type; assay: EMSA; 400 nM Zur, 0-5 uM zinc; saturating state switched (hexamer); ITC: 20 mM HEPES pH 7.8, 150 mM NaCl, 0.5 mM TCEP, 25 C. EMSA: 20 mM Tris-HCl pH 7.8, 150 mM NaCl, 5 mM DTT, 0.1 mg/ml BSA, 5% glycerol, 0.1 ug poly(dI-dC) per; details: protein: recombinant; chain copies: 2; label: 6-FAM; blunt

CTCCTCGTGTGTACCGGCGTCCGGCGACCCGGCGCCCGGATGCCAGTCAACTACGGGTAGGGGGTATCGGGCAACGCGGCACTGAACACCGTTGTCATGTGCCTTGACCTGCGGAAACGTTTCGCAGGTCAGAGTGTTGCGAGGATGCGGAGGGTGCGGCTTCCGCCGTCAGGGGGACCGGTCCGACGGGGCTCGTCCTGACCCTGTGCGAACAACGGCGGACACTGTGCGATGTCCGCGATGCCCGGTCTGGGGGCGCGGTTTGTC (double strand) [zitB promoter 267 bp footprinting probe]
binding [1]: binds | binding [2]: binds more weakly

B1: zitB 33 bp (dsDNA)
DNA 1: CAAGGCACATGACAACGGTGTTCAGTGCCGCGT
DNA 2: ACGCGGCACTGAACACCGTTGTCATGTGCCTTG
Kd (Zur (ScZur) wild type [3]): 600 ± 100 nM | Kd (Zur H36A [4]): 3900 ± 1000 nM

B2: zitB zurbox with znuA flanks (4 nt each) (dsDNA)
DNA 1: CAAGGTTGTTGACAACGGTGTTCATATTCGCGT
DNA 2: ACGCGAATATGAACACCGTTGTCAACAACCTTG
binding result (Zur (ScZur) wild type [5]): binds

B3: znuA 33 bp (zurbox site 1) (dsDNA)
DNA 1: TCCGCTTGTTGACAACGGTTTCCATATTTGTTG
DNA 2: CAACAAATATGGAAACCGTTGTCAACAAGCGGA
Kd (Zur H36A [6]): 3000 ± 900 nM | Kd (Zur (ScZur) wild type [7]): 1200 ± 200 nM

B4: znuA zurbox with zitB flanks (4 nt each) (dsDNA)
DNA 1: TCCGCCACATGACAACGGTTTCCAGTGCTGTTG
DNA 2: CAACAGCACTGGAAACCGTTGTCATGTGGCGGA
binding result (Zur (ScZur) wild type [8]): binds

Source: PMC11077047, “Activation of zinc uptake regulator by zinc binding to three regulatory sites”
